Results: PMC6585157

Molecular target: Mycoplasma hyopneumoniae enolase (Mhp Eno, MHP168_271) (Mycoplasma hyopneumoniae)
Experiment: crystal structure

“Mycoplasma hyopneumoniae enolase (Mhp Eno, MHP168_271) (enzyme)” was tested, and the stoichiometry N was 8.
